Results taken from patent publication US20240270846A1 (published 2024).
Where a chain is given by its changes, count along the chain named. Numbers in names are those of the source.

B1: GLS3000 S25L (Kabat) L chain altered form, one-arm antibody with CE115HA000 (antibody, human IgG1, kappa, L234A L235A, N297A, name in Kabat numbering)
heavy: QVQLVESGGGVVQPGRSLRLSCAASGFTFSNAWMHWVRQAPGKGLEWVAQIKAKSNNYATYYAESVKGRFTISRDDSKNSLYLQMNSLKTEDTAVYYCRYVHYGAYYGVDAWGQGTTVTVSSASTKGPSVFPLAPSSKSTSGGTAALGCLVKDYFPEPVTVSWNSGALTSGVHTFPAVLQSSGLYSLSSVVTVPSSSLGTQTYICNVNHKPSNTKVDKKVEPKSCDKTHTCPPCPAPEAAGGPSVFLFPPKPKDTLMISRTPEVTCVVVDVSHEDPEVKFNWYVDGVEVHNAKTKPREEQYASTYRVVSVLTVLHQDWLNGKEYKCKVSNKALPAPIEKTISKAKGQPREPQVYTLPPSRCELTKNQVSLSCAVKGFYPSDIAVEWESNGQPENNYKTTPPVLDSDGSFFLVSKLTVDKSRWQQGNVFSCSVMHEALHNHYTQKSLSLSPDYKDDDDK
chain: EPKSSDKTHTCPPCPAPELLGGPSVFLFPPKPKDTLMISRTPEVTCVVVDVSHEDPEVKFNWYVDGVEVHNAKTKPREEQYNSTYRVVSVLTVLHQDWLNGKEYKCKVSNKALPAPIEKTISKAKGQPREPQVCTLPPSRDELTKNQVSLWCLVKGFYPSDIAVEWESNGQPENNYKTTPPVLDSDGSFFLYSKLTVDKSRWQQGNVFSCSVMHEALHNRYTQKSLSLSP
light: DIVMTQSPLSLPVTPGEPASISCRLSQSLVHSNRNTYLHWYQQKPGQAPRLLIYKVSNRFSGVPDRFSGSGSGTDFTLKISRVEAEDVGVYYCGQGTQVPYTFGQGTKLEIKRTVAAPSVFIFPPSDEQLKSGTASVVCLLNNFYPREAKVQWKVDNALQSGNSQESVTEQDSKDSTYSLSSTLTLSKADYEKHKVYACEVTHQGLSSPVTKSFNRGEC
notes: one-arm antibody
B2: GLS3000 S26E (Kabat) L chain altered form, one-arm antibody with CE115HA000 (antibody, human IgG1, kappa, L234A L235A, N297A, name in Kabat numbering)
heavy: B1 heavy
chain: B1 chain
light: B1 light with L25S, S26E
notes: one-arm antibody
B3: GLS3000 S25V (Kabat) L chain altered form, one-arm antibody with CE115HA000 (antibody, human IgG1, kappa, L234A L235A, N297A, name in Kabat numbering)
heavy: B1 heavy
chain: B1 chain
light: B1 light with L25V
notes: one-arm antibody
B4: GLS3000 S27eG (Kabat) L chain altered form, one-arm antibody with CE115HA000 (antibody, human IgG1, kappa, L234A L235A, N297A, name in Kabat numbering)
heavy: B1 heavy
chain: B1 chain
light: B1 light with L25S, S32G
notes: one-arm antibody
B5: GLS3000 S27eT (Kabat) L chain altered form, one-arm antibody with CE115HA000 (antibody, human IgG1, kappa, L234A L235A, N297A, name in Kabat numbering)
heavy: B1 heavy
chain: B1 chain
light: B1 light with L25S, S32T
notes: one-arm antibody
B6: GLS3000 S25T (Kabat) L chain altered form, one-arm antibody with CE115HA000 (antibody, human IgG1, kappa, L234A L235A, N297A, name in Kabat numbering)
heavy: B1 heavy
chain: B1 chain
light: B1 light with L25T
notes: one-arm antibody
B7: GLS3000 S27eQ (Kabat) L chain altered form, one-arm antibody with CE115HA000 (antibody, human IgG1, kappa, L234A L235A, N297A, name in Kabat numbering)
heavy: B1 heavy
chain: B1 chain
light: B1 light with L25S, S32Q
notes: one-arm antibody
B8: GLS3000 S27eM (Kabat) L chain altered form, one-arm antibody with CE115HA000 (antibody, human IgG1, kappa, L234A L235A, N297A, name in Kabat numbering)
heavy: B1 heavy
chain: B1 chain
light: B1 light with L25S, S32M
notes: one-arm antibody
B9: GLS3000 S27eR (Kabat) L chain altered form, one-arm antibody with CE115HA000 (antibody, human IgG1, kappa, L234A L235A, N297A, name in Kabat numbering)
heavy: B1 heavy
chain: B1 chain
light: B1 light with L25S, S32R
notes: one-arm antibody
B10: GLS3000 S27eI (Kabat) L chain altered form, one-arm antibody with CE115HA000 (antibody, human IgG1, kappa, L234A L235A, N297A, name in Kabat numbering)
heavy: B1 heavy
chain: B1 chain
light: B1 light with L25S, S32I
notes: one-arm antibody
B11: GLS3000 S27aE (Kabat) L chain altered form, one-arm antibody with CE115HA000 (antibody, human IgG1, kappa, L234A L235A, N297A, name in Kabat numbering)
heavy: B1 heavy
chain: B1 chain
light: B1 light with L25S, S28E
notes: one-arm antibody
B12: GLS3000 S27eF (Kabat) L chain altered form, one-arm antibody with CE115HA000 (antibody, human IgG1, kappa, L234A L235A, N297A, name in Kabat numbering)
heavy: B1 heavy
chain: B1 chain
light: B1 light with L25S, S32F
notes: one-arm antibody
B13: GLS3000 S27eW (Kabat) L chain altered form, one-arm antibody with CE115HA000 (antibody, human IgG1, kappa, L234A L235A, N297A, name in Kabat numbering)
heavy: B1 heavy
chain: B1 chain
light: B1 light with L25S, S32W
notes: one-arm antibody
B14: GLS3000 S27eH (Kabat) L chain altered form, one-arm antibody with CE115HA000 (antibody, human IgG1, kappa, L234A L235A, N297A, name in Kabat numbering)
heavy: B1 heavy
chain: B1 chain
light: B1 light with L25S, S32H
notes: one-arm antibody
B15: GLS3000 S27aG (Kabat) L chain altered form, one-arm antibody with CE115HA000 (antibody, human IgG1, kappa, L234A L235A, N297A, name in Kabat numbering)
heavy: B1 heavy
chain: B1 chain
light: B1 light with L25S, S28G
notes: one-arm antibody
B16: GLS3000 S25M (Kabat) L chain altered form, one-arm antibody with CE115HA000 (antibody, human IgG1, kappa, L234A L235A, N297A, name in Kabat numbering)
heavy: B1 heavy
chain: B1 chain
light: B1 light with L25M
notes: one-arm antibody
B17: GLS3000 S26D (Kabat) L chain altered form, one-arm antibody with CE115HA000 (antibody, human IgG1, kappa, L234A L235A, N297A, name in Kabat numbering)
heavy: B1 heavy
chain: B1 chain
light: B1 light with L25S, S26D
notes: one-arm antibody
B18: GLS3000 S27aP (Kabat) L chain altered form, one-arm antibody with CE115HA000 (antibody, human IgG1, kappa, L234A L235A, N297A, name in Kabat numbering)
heavy: B1 heavy
chain: B1 chain
light: B1 light with L25S, S28P
notes: one-arm antibody
B19: GLS3000 S27eN (Kabat) L chain altered form, one-arm antibody with CE115HA000 (antibody, human IgG1, kappa, L234A L235A, N297A, name in Kabat numbering)
heavy: B1 heavy
chain: B1 chain
light: B1 light with L25S, S32N
notes: one-arm antibody
B20: GLS3000 S27eV (Kabat) L chain altered form, one-arm antibody with CE115HA000 (antibody, human IgG1, kappa, L234A L235A, N297A, name in Kabat numbering)
heavy: B1 heavy
chain: B1 chain
light: B1 light with L25S, S32V
notes: one-arm antibody
B21: GLS3000 S27aY (Kabat) L chain altered form, one-arm antibody with CE115HA000 (antibody, human IgG1, kappa, L234A L235A, N297A, name in Kabat numbering)
heavy: B1 heavy
chain: B1 chain
light: B1 light with L25S, S28Y
notes: one-arm antibody
B22: GLS3000 S26P (Kabat) L chain altered form, one-arm antibody with CE115HA000 (antibody, human IgG1, kappa, L234A L235A, N297A, name in Kabat numbering)
heavy: B1 heavy
chain: B1 chain
light: B1 light with L25S, S26P
notes: one-arm antibody
B23: GLS3000 S27eY (Kabat) L chain altered form, one-arm antibody with CE115HA000 (antibody, human IgG1, kappa, L234A L235A, N297A, name in Kabat numbering)
heavy: B1 heavy
chain: B1 chain
light: B1 light with L25S, S32Y
notes: one-arm antibody
B24: GLS3000 S27eD (Kabat) L chain altered form, one-arm antibody with CE115HA000 (antibody, human IgG1, kappa, L234A L235A, N297A, name in Kabat numbering)
heavy: B1 heavy
chain: B1 chain
light: B1 light with L25S, S32D
notes: one-arm antibody
B25: GLS3000 S27eK (Kabat) L chain altered form, one-arm antibody with CE115HA000 (antibody, human IgG1, kappa, L234A L235A, N297A, name in Kabat numbering)
heavy: B1 heavy
chain: B1 chain
light: B1 light with L25S, S32K
notes: one-arm antibody
B26: GLS3000 S27aN (Kabat) L chain altered form, one-arm antibody with CE115HA000 (antibody, human IgG1, kappa, L234A L235A, N297A, name in Kabat numbering)
heavy: B1 heavy
chain: B1 chain
light: B1 light with L25S, S28N
notes: one-arm antibody
B27: GLS3000 S27eP (Kabat) L chain altered form, one-arm antibody with CE115HA000 (antibody, human IgG1, kappa, L234A L235A, N297A, name in Kabat numbering)
heavy: B1 heavy
chain: B1 chain
light: B1 light with L25S, S32P
notes: one-arm antibody
B28: GLS3000 S52A (Kabat) L chain altered form, one-arm antibody with CE115HA000 (antibody, human IgG1, kappa, L234A L235A, N297A, name in Kabat numbering)
heavy: B1 heavy
chain: B1 chain
light: B1 light with L25S, S57A
notes: one-arm antibody
B29: GLS3000 S27eL (Kabat) L chain altered form, one-arm antibody with CE115HA000 (antibody, human IgG1, kappa, L234A L235A, N297A, name in Kabat numbering)
heavy: B1 heavy
chain: B1 chain
light: B1 light with L25S, S32L
notes: one-arm antibody
B30: GLS3000 S27aD (Kabat) L chain altered form, one-arm antibody with CE115HA000 (antibody, human IgG1, kappa, L234A L235A, N297A, name in Kabat numbering)
heavy: B1 heavy
chain: B1 chain
light: B1 light with L25S, S28D
notes: one-arm antibody
B31: GLS3000 S27eE (Kabat) L chain altered form, one-arm antibody with CE115HA000 (antibody, human IgG1, kappa, L234A L235A, N297A, name in Kabat numbering)
heavy: B1 heavy
chain: B1 chain
light: B1 light with L25S, S32E
notes: one-arm antibody
B32: GLS3000 S27aI (Kabat) L chain altered form, one-arm antibody with CE115HA000 (antibody, human IgG1, kappa, L234A L235A, N297A, name in Kabat numbering)
heavy: B1 heavy
chain: B1 chain
light: B1 light with L25S, S28I
notes: one-arm antibody
B33: GLS3000 S27eA (Kabat) L chain altered form, one-arm antibody with CE115HA000 (antibody, human IgG1, kappa, L234A L235A, N297A, name in Kabat numbering)
heavy: B1 heavy
chain: B1 chain
light: B1 light with L25S, S32A
notes: one-arm antibody
B34: GLS3000 S25P (Kabat) L chain altered form, one-arm antibody with CE115HA000 (antibody, human IgG1, kappa, L234A L235A, N297A, name in Kabat numbering)
heavy: B1 heavy
chain: B1 chain
light: B1 light with L25P
notes: one-arm antibody

What follows are binders tested against T1, CD3 epsilon homodimer protein (UniProt P07766 23-126) (assay: SPR Biacore T200, CD3 epsilon homodimer immobilized; vs unaltered GLS3000;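 note: antibody variants flowed as analyte over CD3 epsilon homodimer amine-coupled to a CM4 chip, at 25 °C in HBS-EP+ running buffer, fitted with Biacore T200 Evaluation Software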).
T1 construct: construct not described; homodimer as printed; also called CD3 (CD3 epsilon)
T1 sequence (P07766 23-126): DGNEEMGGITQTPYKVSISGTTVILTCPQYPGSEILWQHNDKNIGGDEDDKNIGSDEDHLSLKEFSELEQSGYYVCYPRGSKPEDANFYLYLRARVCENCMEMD
For B1, the “KD ratio to GLS3000 (Affinity up)” value was 4.93.
B2 was tested, and the “KD ratio to GLS3000 (Affinity up)” value was 0.9.
In the case of B3, the “KD ratio to GLS3000 (Affinity up)” value is reported as 0.74.
For B4, the “KD ratio to GLS3000 (Affinity up)” value was 1.03.
B5 was tested, and the “KD ratio to GLS3000 (Affinity up)” value was 0.98.
B6 was tested, and the “KD ratio to GLS3000 (Affinity up)” value was 0.75.
With B7 the “KD ratio to GLS3000 (Affinity up)” value was 1.08.
With B8 the “KD ratio to GLS3000 (Affinity up)” value was 1.11.
B9 was tested, and the “KD ratio to GLS3000 (Affinity up)” value was 1.35.
In the case of B10, the “KD ratio to GLS3000 (Affinity up)” value is reported as 1.05.
In the case of B11, the “KD ratio to GLS3000 (Affinity up)” value is reported as 0.94.
In the case of B12, the “KD ratio to GLS3000 (Affinity up)” value is reported as 1.16.
B13 was tested, and the “KD ratio to GLS3000 (Affinity up)” value was 1.32.
For B14, the “KD ratio to GLS3000 (Affinity up)” value was 1.09.
B15 was tested, and the “KD ratio to GLS3000 (Affinity up)” value was 0.8.
For B16, the “KD ratio to GLS3000 (Affinity up)” value was 1.6.
In the case of B17, the “KD ratio to GLS3000 (Affinity up)” value is reported as 1.06.
B18 was tested, and the “KD ratio to GLS3000 (Affinity up)” value was 1.01.
With B19 the “KD ratio to GLS3000 (Affinity up)” value was 1.01.
For B20, the “KD ratio to GLS3000 (Affinity up)” value was 0.95.
For B21, the “KD ratio to GLS3000 (Affinity up)” value was 0.93.
With B22 the “KD ratio to GLS3000 (Affinity up)” value was 0.67.
With B23 the “KD ratio to GLS3000 (Affinity up)” value was 1.1.
In the case of B24, the “KD ratio to GLS3000 (Affinity up)” value is reported as 1.23.
In the case of B25, the “KD ratio to GLS3000 (Affinity up)” value is reported as 1.32.
In the case of B26, the “KD ratio to GLS3000 (Affinity up)” value is reported as 0.98.
With B27 the “KD ratio to GLS3000 (Affinity up)” value was 1.06.
B28 was tested, and the “KD ratio to GLS3000 (Affinity up)” value was 0.9.
For B29, the “KD ratio to GLS3000 (Affinity up)” value was 1.06.
B30 was tested, and the “KD ratio to GLS3000 (Affinity up)” value was 0.94.
For B31, the “KD ratio to GLS3000 (Affinity up)” value was 1.04.
In the case of B32, the “KD ratio to GLS3000 (Affinity up)” value is reported as 0.87.
For B33, the “KD ratio to GLS3000 (Affinity up)” value was 1.01.
In the case of B34, the “KD ratio to GLS3000 (Affinity up)” value is reported as 0.79.
